“Also recorded” adds a separate entry of the source.
Columns and labels:
Type in all cases: cell-based, human
[1] = test system: IFN-γ-stimulated smooth muscle cells elastase activity; experiment: Elastase assay: smooth muscle cells co-cultured with insoluble [3H]-elastin
Description: FIG. 2 is a bar graph showing that smooth muscle cells elastase activity is inhibited by recombinant cystatin C. Interferon-γ stimulated smooth muscle cells were co-cultured in serum-free medium with insoluble elastin in the presence of increasing concentrations of cystatin C as indicated in the panel. After 72 hrs, media were collected and soluble radioactivity measured as an index of elastin degradation.
FIG. 3 is a graph showing that TGF-β1 blocks smooth muscle cells elastase activity. Interferon-stimulated smooth muscle cells were co-cultured with elastin as above in the presence of increasing amounts of TGF-β1 and elastin degradation quantified after 72 hrs.
Prior studies documenting the capacity of macrophages to use cysteine proteases to degrade elastin found macrophage elastolytic activity to be insensitive to the presence of pericellular serum protease inhibitors (Reedy et al., 92 Porch. Natl. Acad. Sci. 3849-853 (1995); Chapman et al., 74 J. Clin. Invest. 1693-700 (1984)). Given the marked reduction of cystatin C in atherosclerotic and aneurysmal lesions and the clinical correlation in EXAMPLES 1-3, the influence of cystatin C on the elastolytic activity of cultured vascular smooth muscle cells was examined. Vascular smooth muscle cells were stimulated with IFN-γ (500 units/ml) for 24 hours to augment cathepsin S-dependent elastase activity (Sukhova et al., 102 J. Clin. Invest. 576-83 (1998)). In co-cultures with insoluble elastin, the addition of as little as 10 ng/ml of recombinant cystatin C inhibits elastin degradation (FIG. 2). Higher concentrations of cystatin C block >75% of the IFNγ-induced activity, confirming that smooth muscle cells elastase activity depends largely on elastolytic cysteine proteases.
The elastase assay was performed as follows: Smooth muscle cells were cultured on 24-well plates in 10% FBS DMEM until 100% confluence (5×10^5 cells/well). […] The digested elastin radioactivity was counted using 200 μl of medium and the data presented as μg elastin degraded per 10^6 cells in 24 hours.

[2] = test system: cathepsin S and cystatin C mRNA in smooth muscle cells; experiment: Northern blot analysis of smooth muscle cell RNA
Procedure: Total RNAs were isolated from control and IFN-γ-stimulated smooth muscle cells for Northern blot analysis. Northern blot analysis was performed as follows: After INF-γ and TGF-β1 treatments, 1.5×10^7 smooth muscle cells were lysed in 5 ml of guanidium. isothiocyanate (GTC) lysis buffer for RNA preparation as described (Sukhova et al., 102 J. Clin. Invest. 576-83 (1998)). Twenty micrograms of total RNA from smooth muscle cells were separated on 1.2% agarose gel and blotted on Zeta-Probe GT blotting membrane (Bio-Rad Laboratories, Inc.). A human cystatin C probe was generated by polymerase chain reaction using cystatin C cDNA. The 500 bp cystatin C cDNA fragment and cathepsin S cDNA probe (Sukhova et al., 102 J. Clin. Invest 576-83 (1998)) were labeled with [^32P]-dCTP and purified with NENSORB 20 column (NEN Life Science Products, Inc.) before hybridizing as previously described (Sukhova et al., 102 J. Clin. Invest. 576-83 (1998)).

[3] = test system: cathepsin S and cystatin C protein/secretion by smooth muscle cells; experiment: Immunoblot analysis of smooth muscle cell lysates and culture medium; conditions: for cystatin C secretion (level of secreted cystatin C): cultured vascular smooth muscle cells, culture medium
Procedure: Human sapheneous vein smooth muscle cells were cultured in Swell plates in Dulbecco's Modification of Eagle's Medium (DMEM) containing 10% fetal bovine serum (FBS) until confluent. […] Culture medium was then collected and centrifuged at 16000×g for 10 min. Proteins were precipitated with 20% trichloroacetic acid on ice for 30 min. followed by repeat centrifugation. The protein pellet was briefly washed with 100% ethanol and resuspended in electrophoresis sample buffer smooth muscle cells were lysed directly into sample buffer after two washes with 1×PBS. Both cell lysates and proteins from culture medium were separated on SDS-PAGE for immunoblot analysis with antibodies against human cathepsin S and cystatin C as described above. All Western blots were developed with Western Blot Chemiluminescence Reagent (NEN Life Science Products, Inc., Boston, Mass., USA).

[4] = smooth muscle cells, TGF-β1 5 ng/ml
[5] = smooth muscle cells stimulated with IFN-γ (500 units/ml)

Molecule | concentration that almost completely blocks elastase activity ([1]; IFN-γ-stimulated smooth muscle cells, elastin degradation after 72 hrs) [ng/mL] | level of cathepsin S mRNA [2, 4] | level of cystatin C mRNA [2, 4] | cystatin C secretion (level of secreted cystatin C) [3] | time after exposure at which cystatin C biosynthesis increases ([3]; smooth muscle cells exposed to TGF-β1) | level of cathepsin S protein [3, 4] | cathepsin S mRNA [2, 5] | secretion of active cathepsin S [3, 5] | concentration that inhibits elastin degradation (elastolytic activity) ([1]; IFN-γ (500 units/ml) stimulated vascular smooth muscle cells co-cultured with insoluble elastin, 72 hrs) [ng/mL] | block of IFNγ-induced elastase activity ([1]; higher concentrations of cystatin C (tested 0-500 ng/ml), IFN-γ-stimulated smooth muscle cells) [%]
TGF-β1: transforming growth factor-β1, native or recombinant cytokine (SEQ ID NO:2); induces cystatin C secretion | ≤ 1 | does not change | does not change | markedly increases; also recorded: stimulates; also recorded: potent inducer | one | does not change |  |  |  | 
IFN-γ: pro-inflammatory cytokine used at 500 units/ml to stimulate smooth muscle cell cathepsin S-dependent elastase activity (protein, UniProt P01579 24-161, looked up) Interferon gamma: QDPYVKEAENLKKYFNAGHSDVADNGTLFLGILKNWKEESDRKIMQSQIVSFYFKLFKNFKDDQSIQKSVETIKEDMNVKFFNSNKKKRDDFEKLTNYSVTDLNVQRKAIHELIQVMAELSPAAKTGKRKRSQMLFRG |  |  |  | no effect |  |  | induces | induces |  | 
recombinant cystatin C: 13 kDa extracellular inhibitor of cysteine proteases, human sequence SEQ ID NO:1; native or recombinant (protein, UniProt P01034 27-146, looked up) Cystatin-C: SSPGKPPRLVGGPMDASVEEEGVRRALDFAVGEYNKASNDMYHSRALQVVRARKQIVAGVNYFLDVELGRTTCTKTQPNLDNCPFHDQPHLKRKAFCSFQIYAVPWQGTMTLSKSTCQDA |  |  |  |  |  |  |  |  | ≤ 10 | > 75

Reference: patent publication US6773704B1, “Methods of treating vascular disease associated with cystatin C deficiency” (The Brigham and Women's Hospital, Inc., priority 1999, dated 2004)
